Measured values as given in the nanobody polyreactivity screen of Harvey et al. (2022).

Experiment: yeast display, Sf9 membrane polyspecificity reagent, FACS + sequencing; frameworks hold sequencing errors
Summary of the method: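 A nanobody's polyreactivity label depends on the gate it was sorted from. Yeast display cells were stained with 10% biotinylated, detergent-solubilized Sf9 membrane reagent for 1 hour at 4 °C, enriched on streptavidin microbeads and sorted by FACS. The low and high (top ~1%) gates were set on anti-HA fluorescence for expression and streptavidin fluorescence for reagent binding.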

| Sequence | polyreactivity (PSR sort gate) |
| --- | --- |
| QVQLVESGGGLVQAGGSLRLSCAASGRTFLWYAMGWYRQAPGKEREFVAAITKSSGSTYYADSVKGRFTISRDNAKNTVFLQMNSLKPEDNAVYYCAKRPFSTRYDYWGQVTQVTVSS | high polyreactivity |
| QVHLVESGGGLVQAGGSLRLSCAASGSNFARNAMGWYRHAPGKERELVAAITYSGGRTYYADSVKGRFTISRDNAKNTVYLQMNSLKPEDTAVFYCAVKSFSGHGDYWGQGTEVTVSS | low polyreactivity |
| QVQLVESAAGLVQAGGSLRLSCAASGLTFTTYDKGWYTQAPRKQRELFAAISRGGSRTYYADSVKGRFTISRDNAKNTVYLQMNSLKPEDTAVYYGNALTGSFTTYSFDFWGQGTQVTVSS | high polyreactivity |
| QDQHVESGGGLVQAGGSLRLSCAASGSTFKIYAMGWYRQPHGKESELVARITGRGGSTYYADSVKGRFTISRDNAKNTVYLQMNSLKPEDTAVYYCAARVYTYYDDLHKRYYWGQGTQVTVSS | high polyreactivity |
| QVQLVESGGGLVQAGGSLRLSCAASGRTFAVYAMGWYRQATGKERELVAAISSGGSTYYADSVKGRFTISRDNAKNTVYLQMNSLKPEDTAVYYCTARWGYRRGYCGQGTQVTVSS | high polyreactivity |
| QGQLVESGGGLVQAGGSLRLSCAASGSIFGPYVMGWYRPAPGTERELVASITSSGGSTYYADSVKGRFTISRDNAKNTVYLQMNSLKPEDTAVYYCAATRSFSGGYGYVSYDYWGQGTQVTVSS | high polyreactivity |
| QVQLVESGGGLVQAGGSLRLSCAASGIIIRYYAMGWYRQAPGKERELVADITTGGTTYYADSVKGRFTISRDNAKNTVYLQMNCLKPEDTAVYYCAAYYFPTYSKTYIYPFDYWGQGTQVTVSS | low polyreactivity |
| QVQLVESGGGLVQAGGSLRLSCAASGSIFARYAMGWYRQAPGTERELVAAISRNGGSTYYADSVKGRFTISRDNAKNTVYLQMNSLKPEDTAVYYCAASYYVLYTREYDYWGQGTQVTVSS | low polyreactivity |
| QVQLVESGGGLVQAGGSLRLSCAASGRIFKSYAMGWYRQAPGKERELVASITWSGGRTYYADSVKGRFTISRDNAKNTVYLQMNSLIPEDTAVYYCAARTYSYGSILKYYYWGQGTQVTVSS | high polyreactivity |
| QVQLVESGGGLVQAGGSLRLSCASSGRTFLHNAMGWYRQAPGKERELVAAISSRGGSTYYADSVKGRFTISRDNAKNTVYLQMNSLKPEDTAVYYCAADLVVYRYDYWGQGTQVTVSS | high polyreactivity |
| QVQLVESGGGLVQAGGSLRLSCAASGIIFERYAMGWYRQAPGKERELVAAISKGGGSRTYYADSVQGRFTISRDTAKNTVYLQMNSLKPEDTAVYYCNADIWYGDMDYWGQGTQVTVSS | high polyreactivity |
| QVHLVESGGGLVQAGGSLRLSCASTGFTFSRNTMGWYRQPPGKERELVARISASGGSTYYADSVKGRFTISRDNAKNTVYLQMNSLKPEDTAVYYCAAEGFYRSSPVRTYIGYDYWGQGSQVTVSS | high polyreactivity |
| QVQLVESGGGLVQAGCSLRLSCAASGRTFPYYAMGWYRQAPGKERELVARIRSDGSTNYADSVKGRFTISRDNAKNTVYLQMNSLKPEDTAVYYCTADVGFEPPWYDWSWDNEYWGQGTQVSVSS | low polyreactivity |
| QVQLVESGGRLVQAGGSLRLSCAASGRIFGYYAMGRYRQAPGKERQLVAAITSGGSTYYADSVKGRFTISRDNATNTVYLQMHSLKPEDTADYYCNARYWGRTKVYYWGQGTQVTVSS | high polyreactivity |
| QVQLVESGGGLVQAGGSLRLSCAASGISFEYYAMGWYRQAPGKERELVAAITRGGSTYYADSVKGRFTISRDNAKNTVYLQMNSLKPEDTAVYYCAADRYYYEYDYWGQGTQVTVSS | low polyreactivity |
| QVQLVESGGGLVQAGGSLRLSCAASGSTFSRYAMGWYRQAPGKVRELVAAISWGGNTYYADSVKGRFTISRDNAKNTVYLQMNSLKPEDTAVYYCNRYSKLYNTMDYWGQGTQVTVSS | high polyreactivity |
| QVQLVESGGGLVQAGGSLRLICAASGFIFESNAMGWYRQAPGKERELVAAITSAGRTYYADSVKGRFTISRDNAKNTVYLQMNSLKPEDNAVYYCNATRSRYRYDYWGQGTQVTVSS | high polyreactivity |
| QVQLGESGGGLVQAGGSLRLSCAASGFTFTRYAMGWYRQAPGKERELVAAIRWSGGRTYFADSVKGRFTISRDNAKNTVYLEMNRLKPEDTAVYYCNAVFYDPRREYDYWGQGTQVTVSS | high polyreactivity |
| QVQLVESGGGLVQAGGSLRLSCAASGSIFYYYAMGWYRQAPGKERELVAAISSGGSTNYADSVKGRFTISRDYAKNTVYLQMNSLKPEDTAVYYCAADYRAQYVVWYTYDYWGQGTQVTVSS | low polyreactivity |
| QVQLVESGGGLVQAGGSLRLSCAASGRIFSRKTMGWYRQAPGKEREFVAAISQSGGRTYYADSVKGRFTISRDNAKNTVYLQMNSLKPEDTAVYYCNAQFARSSGFNYWGQGTQVTVSS | high polyreactivity |
| QVQLVESGGGLVQAGGSLRLSCAASGRTFNGYAMGWYRQAPGKEREFVAAITSRGGSTYYADSVKGRFTISRDNAKNTVYLQMNSLKPEDTAVYYCAARAYTALSWRRYGYWGQGTQVTVSS | high polyreactivity |
| QVQLVESVGGLVQAGGSLRLSCAASGSIFGDNAMGWYRQAPGKERELVAAITWRGGSTYYADSVKGRFTISRDNAKNTVYLQMNSLKPEDTAVYYCATDSRSHRDYWGQGTQVTVSS | low polyreactivity |

| Sequence | polyreactivity (PSR sort gate) |
| --- | --- |
| QVQLVESGGGLVQAGGSLRLSCAASGRTFPRNGMGWYRQAPGKERELVAAISWSGGRTYYADSVKGRFTISRDNAKYTVYLQMNSLKPEDTAVYYCNALYFRKGGYWGHGTQVTVSS | high polyreactivity |
| QVQLGESGGGLVQAGGSLRLSCAASGIIFYEYVMVWYRQAPGKEREFVATISSIGGSTYYADSVKGRFTISRDNAKNTVYLQMNSRKPADTAVYYCAADPDPVVAPGGNWYGDDYWGQGSQVTVSS | high polyreactivity |
| QVQLVESGGGLVQAGGSLRLSCAASGRTFYDYAKGWYRQAPGKERELVASITYYADSVKGRFTISRDNAKNTVYLQMNSLKPEDTSVYYCAKDLYSNDLYRRYDYWGQGTQVTVSS | low polyreactivity |
| QVQLVESGGGLVQAGGSLRLSCAASGRTFHNYAMGRYRQAPGKERELVAAISRGGNTYYADSVKGRFTISRDNSKNTVYLQMNSLKPEDTAVYYCAKDNHFEAYRYDYWGQGTQVTVSS | high polyreactivity |
| QVQLVESGGGLVQAGGSLRLSCAASGRIFLYYAMGWYRQAPGKERELVAAITSSGGGTYYADSVKGRFTISRDNAKNTVYLQMNSLKPEDTAVYYCAARRRSQWRYYYWGQGTQVTVSS | high polyreactivity |
| QVQLVESGGGLVQAGGSLRLSCAASGFTFLTYAMGWYRQAPGKERELVAAIDSGDSTKYADSVKGRFTISLDNAKNTVYLQMNSLKPEDTAVYYCNASRRYHVRAPYDYWGQGTQVTVSS | low polyreactivity |
| QVQHVESGRGLVQAGGSLRLSCAASGSTFDYNALGWSRQAPGKERELVARISSSGGITDYADSVKGRFTISRDNAKNTVYLHMNSLKPDDTAVNYCARVGKSGAVTAETRRWYYYWGQGTQVTVSS | low polyreactivity |
| QVQLVESGGGLVQAGGSLRLSCAASVFTFLYYAMGWYRQAPGKERELVAAISSTGGTTYYADSVKGRFTISRDNAKNTVYLQMNSLKPEDTAVYYCAADQGVYRTYWFDYWGQGTQVTVSS | high polyreactivity |
| QVQLVESGGGLVQAGGSVRLSCAASGRIFGWYAMGCYRPAPGKERELVAAIPWSGDSTYYADSVKGRFTISRDNAKNTVYLQMNSLKPEDTAVYYCNKVRGYPRVAGYYSWGQGTQVTVSS | low polyreactivity |
| QVQLVESGGGLVQAGGSLRLSCAASGSIFERYALGWYSQAPGKEREMVAAITWTGGRTYYADSVKGRFTISRDIAKNTVYLQMNSLKPEDTAVYYCARSYTRRGYDYWGLGTQVTVSS | high polyreactivity |
| QVQLVESGGGLVQAAGSLRLSCAASGRIFTPYAMGWYRQAPGKERELVAVIRDGSTYYADSVKGRFTISRDNAKNTVYLQMNSLKPEDTAVYYCRYDIWVWWSGAYDYWGLGTQVTVSS | low polyreactivity |
| QVQLVESGGGLVQAGGTLRLSCAASGSTFGPNAMGWYRQAPGKEREVVATIRGSGATTYYADSVKGRFTISRDNAKNTVYLQMNSLKPEDSAVYYCDTAYFSGWYNRYGRATSYDYWGQGTEVTVSS | high polyreactivity |
| QVQLVESGGGLVQAGGSLRLSCAASGSTFGTYAMGWYRQAPGKERELVAAITRSGGSTYYADSVKGRFTISRDNAKNTVYLQKNSLKPEDTAVYYCAKYVFSYPQSYAYYYWGHGTQVTVSS | high polyreactivity |
| QVQLVESGGGLVQAGGSLRLSCAASGSNFVPYTMGWYRQAPGKERELVASISYSVGTTYYADSVKGRFTISRDNAKNTVYLQMNSLKPEDTAVYYCAADWDESYSYRRYRHYDYWGQGTQVTVSS | low polyreactivity |
| QVQLVESGGGLVQAGGSLRLSCAASGSTITYYTMGWYRQAPGKERELVAAISGSGGRTYYADSVKGRFTISRDNEKNTVYLQMNSLKPEDTAVYYCAAVYQLSRYDYWGQGTQVTVSS | high polyreactivity |
| QVQLEESGGGLVQAGGSLRLSCAASGSTIHDNDMGWYRQAPGKERELVAAISWSGGSTTYADSVKGRFTISRDNAKNTVYLQMNSLKPEDTAVYYCAADWYYWGFIFDYWGQGTQVTVSS | high polyreactivity |
| HVQLVESGGGLVQAGGSLRLSCAASGRTFTYNTMGVYRKEPGKERELVAAISSSGGSTYYADSVKGRFTISRDNAKNTVYLQMNSLKPEDTAVYYCAKRYFSSSRYYYWGQGTQVTVSS | high polyreactivity |
| QVQLVESWGGLVQSGGSLRLSCAASGSIFSFYPMGWYRQAPGKERELVAAISSGGSTYYADSVKGRFTISRDNAKNTVYLQMNSLKPEDTAVYYCAADQHIRVSWYLQMYYWGQGTQVTVSS | low polyreactivity |
| QVQLVESGGGLVQAGGSLRLSCAASGFTISRYAIGWYRQAPGKERELVAAITGSGGSTYYADSVKGRFTISRDNAKNTVYLQMNSLKPEDTAVYYCNTLKHYKREYDYWGQGTQVTVSS | high polyreactivity |
| QLQLVESGGGLVQAGGSLRLSCAASGFTFSDYARGWYRQAPGKERELVAAINTSGGSTYYADSVKGRFTISRDNAKNTVYLQMNSLKPEDTAVYYCAAKYASLDRRRRKYDYWGQGTQVTVSS | high polyreactivity |
| QVQLVESGGGLVQAGGSLRLSCAASGFIFSNYAMGWYRQAPGKERELVAAISWSGTRTYYADSVKGRFTISRDNAKNTVYLQMNSLKPEDTAVYYCAAYGVYLYDYWGQGTQVTVSS | low polyreactivity |
